Experimental data from US20090203610A1, “METHODS OF TREATING OBESITY OR DIABETES USING NT-4/5” (RINAT NEUROSCIENCE CORPORATION, priority 2004, published 2009).

What was measured:
human TrkB = target: T1, human TrkB (Homo sapiens, UniProt Q16620); experiment: Receptor tyrosine phosphorylation (KIRA) in TrkB expressing cell line; format: cell-based
T1 construct: expressed in transfected cells
Source text: Method of making pegylated NT-4/5 (S50C): The native form of NT-4/5 used in this study was produced according to the method described in U.S. Pat. No. 6,184,360. A site-directed pegylated NT-4/5 was also produced. The structure of NT-4/5 in complex with domain 5 of TrkB was examined to find amino acid side chains that would be surface available and unlikely to interfere with natural disulfide bonds and also unlikely to interfere in either the interactions between the monomer subunits of NT-4/5 or the TrkB domain 5 to create a PEG attaching site. […] […] Mutant proteins were expressed in E. coli, solubilized, extracted, purified and refolded as the native NT-4/5. To pegylate the refolded NT4-S50C, NT4-Q105C, and NT-4-E67C, first a mild reduction with 0.1 mM DTT (dithiothreitol) was performed. Excess DTT was removed by dialysis against 50 mM sodium acetate at pH 6, then a 5 molar excess of mPEG-maleimide (M. W. of 10,000 Da, SunBio, Inc., South Korea) was incubated with the protein at 37° C. for several days with gentle agitation. Pegylated protein, non-pegylated protein and unreacted PEG were separated via ion exchange or size exclusion chromatography.
(§1) Assays of TrkB specific activation by pegylated NT-4/5: Stable cell lines expressing human TrkA, TrkB or TrkC were used to determine the functional activity, i.e. receptor phosphorylation, of NT-4/5 and pegylated NT-4/5 as previously described (Sadick et al. Experimental Cell Research 234: 354-361, 1997).
(§2) Assays of TrkB specific activation by pegylated NT-4/5: Stable cell lines expressing human TrkA, TrkB or TrkC were used to determine the functional activity, i.e. receptor phosphorylation, of NT-4/5 and different forms of pegylated NT-4/5 as previously described (Sadick et al. Experimental Cell Research 234: 354-361, 1997).

[1] = tested on: NONcNZO-10 polygenic obese mice; experiment: Pegylated NT-4/5 cysteine mutant on body weight, food intake, glucose, triglyceride in NONcNZO-10 mice (Example 6); format: in vivo; conditions: 2 mg/kg/week injection
db/db mice [2] = experiment: Daily food intake after single injection of NT-4/5 or pegylated NT-4/5 in db/db mice (Example 7, Table 22); format: in vivo; conditions: for Daily food intake: single s.c. injection 5 mg/kg, db/db mice, mean; for food intake: single subcutaneous injection, 5 mg/kg, significantly
Procedure: (§3) Test animals: 30 female db/db mice at 7 weeks of age weighing in the range of 27-34 g were used in this study.
(§4) Administration of NT-4/5 and pegylated NT-4/5: Wild type NT-4/5 was obtained from Genentech Inc. The mice were divided into 5 groups of equivalent body weight distribution (6 mice per group). Each group received on the first day (day 1) of the study one and the only dose of either vehicle, 5 mg/kg of NT-4/5 produced as described above, 5 mg/kg of 2PEG-NT4-G1S, or 5 mg/kg of 1PEG-NT4-G1S. 2PEG-NT4-G1S represents one PEG molecule was conjugated to each NT-4/5 monomer in a NT-4/5 dimer, and 1PEG-NT4-G1S represents one PEG molecule was conjugated to only one monomer of the NT-4/5 dimer. 2PEG-NT4-G1S and 1PEG-NT4-G1S were separated by ion exchange. Four days before starting the treatment (day −4), blood samples were collected from the mice as described previously for the determination of baseline levels of serum glucose. On day 4 after the treatment started, blood samples were collected again to determine serum glucose level. Body weight and food intake were monitored 5 days a week through out the entire study.

human TrkC = target: T2, human TrkC (Homo sapiens, UniProt Q16288); experiment: Receptor tyrosine phosphorylation in trkC expressing cell line; format: cell-based
T2 construct: expressed in transfected cells
T2 sequence (Q16288 32-839): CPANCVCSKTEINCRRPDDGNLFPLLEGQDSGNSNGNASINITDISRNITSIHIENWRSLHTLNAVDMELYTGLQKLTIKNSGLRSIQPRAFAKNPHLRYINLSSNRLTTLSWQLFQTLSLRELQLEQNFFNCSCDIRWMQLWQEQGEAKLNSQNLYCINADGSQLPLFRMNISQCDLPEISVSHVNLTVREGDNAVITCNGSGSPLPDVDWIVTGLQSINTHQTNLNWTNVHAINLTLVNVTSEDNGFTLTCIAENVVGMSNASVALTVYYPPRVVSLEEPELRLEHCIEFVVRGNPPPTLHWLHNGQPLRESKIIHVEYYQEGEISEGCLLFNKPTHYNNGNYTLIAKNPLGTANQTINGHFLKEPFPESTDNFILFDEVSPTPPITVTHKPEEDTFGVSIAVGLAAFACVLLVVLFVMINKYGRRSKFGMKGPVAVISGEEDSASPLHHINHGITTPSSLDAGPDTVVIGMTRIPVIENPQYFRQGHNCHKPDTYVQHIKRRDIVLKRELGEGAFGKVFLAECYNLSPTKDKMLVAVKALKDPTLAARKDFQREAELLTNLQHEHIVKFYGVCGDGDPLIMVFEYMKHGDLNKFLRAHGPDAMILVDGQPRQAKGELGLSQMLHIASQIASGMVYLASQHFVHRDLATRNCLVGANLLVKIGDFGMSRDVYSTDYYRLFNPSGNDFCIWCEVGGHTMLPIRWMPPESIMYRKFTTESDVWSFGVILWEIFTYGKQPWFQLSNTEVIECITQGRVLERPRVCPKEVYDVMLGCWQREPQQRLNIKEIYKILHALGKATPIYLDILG
Source text: as §1, §2

human TrkA = target: T3, human TrkA (Homo sapiens, UniProt P04629); experiment: Receptor tyrosine phosphorylation in trkA expressing cell line; format: cell-based
T3 construct: expressed in transfected cells
T3 sequence (P04629 33-796): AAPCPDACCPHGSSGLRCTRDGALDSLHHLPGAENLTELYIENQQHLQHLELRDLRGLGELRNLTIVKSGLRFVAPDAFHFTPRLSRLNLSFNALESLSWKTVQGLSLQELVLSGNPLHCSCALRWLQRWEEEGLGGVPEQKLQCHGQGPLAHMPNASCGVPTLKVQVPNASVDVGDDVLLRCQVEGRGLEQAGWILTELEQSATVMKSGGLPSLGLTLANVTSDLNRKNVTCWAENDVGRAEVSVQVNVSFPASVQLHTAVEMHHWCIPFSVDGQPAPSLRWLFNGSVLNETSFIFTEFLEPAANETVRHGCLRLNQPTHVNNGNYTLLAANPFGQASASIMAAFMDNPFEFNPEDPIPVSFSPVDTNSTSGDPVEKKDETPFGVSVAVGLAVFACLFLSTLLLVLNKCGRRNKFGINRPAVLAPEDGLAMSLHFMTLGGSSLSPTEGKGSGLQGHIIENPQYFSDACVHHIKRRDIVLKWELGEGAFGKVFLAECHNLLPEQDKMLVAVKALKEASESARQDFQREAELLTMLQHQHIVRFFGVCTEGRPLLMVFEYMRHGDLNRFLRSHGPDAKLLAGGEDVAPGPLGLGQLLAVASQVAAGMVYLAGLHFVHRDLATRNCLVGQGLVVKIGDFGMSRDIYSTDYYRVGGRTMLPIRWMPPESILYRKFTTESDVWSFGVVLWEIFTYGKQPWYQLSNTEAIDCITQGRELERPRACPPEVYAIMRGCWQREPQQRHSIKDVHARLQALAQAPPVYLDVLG
Source text: as §1, §2

db/db mice [3] = experiment: Body weight after single injection of NT-4/5 or pegylated NT-4/5 in db/db mice (Example 7, Table 21); format: in vivo; conditions: for Body weight expressed in percentage of baseline value: single 5 mg/kg dose on day 1; for body weight growth: single subcutaneous injection, 5 mg/kg, significantly
Procedure: as §3, §4

db/db mice [4] = experiment: Non-fasting serum glucose after single injection in db/db mice (Example 7); format: in vivo; conditions: after 4 days; single subcutaneous injection, 5 mg/kg
Procedure: as §3, §4

[5] = Serum half life after single subcutaneous dose in db/db mice (Example 7); format: in vivo
Source text: In addition, pegylated NT-4/5 has extended half life in vivo.

T1 sequence (Q16620 32-822): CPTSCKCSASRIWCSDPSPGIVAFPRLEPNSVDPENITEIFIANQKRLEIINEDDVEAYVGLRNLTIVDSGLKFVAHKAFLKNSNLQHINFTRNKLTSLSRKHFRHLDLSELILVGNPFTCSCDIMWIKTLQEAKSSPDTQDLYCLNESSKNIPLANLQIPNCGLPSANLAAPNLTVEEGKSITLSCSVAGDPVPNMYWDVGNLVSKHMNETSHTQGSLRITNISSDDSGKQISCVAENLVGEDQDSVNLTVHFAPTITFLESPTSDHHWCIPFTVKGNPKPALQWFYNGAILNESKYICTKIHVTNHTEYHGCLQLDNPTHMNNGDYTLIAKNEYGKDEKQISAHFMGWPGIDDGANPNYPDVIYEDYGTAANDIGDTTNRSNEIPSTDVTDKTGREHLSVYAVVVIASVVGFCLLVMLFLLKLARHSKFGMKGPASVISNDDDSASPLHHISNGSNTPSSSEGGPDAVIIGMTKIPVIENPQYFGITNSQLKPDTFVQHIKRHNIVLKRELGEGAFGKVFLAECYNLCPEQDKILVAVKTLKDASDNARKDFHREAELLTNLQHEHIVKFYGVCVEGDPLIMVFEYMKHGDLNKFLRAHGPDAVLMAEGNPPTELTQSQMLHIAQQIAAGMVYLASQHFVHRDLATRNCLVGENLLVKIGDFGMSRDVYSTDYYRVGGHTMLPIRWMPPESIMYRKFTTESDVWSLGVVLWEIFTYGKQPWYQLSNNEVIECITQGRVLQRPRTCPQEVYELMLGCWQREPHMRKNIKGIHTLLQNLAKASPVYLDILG

| Molecule | receptor tyrosine phosphorylation of TrkB-expressing cell line (human TrkB) | in vivo activity (body weight, food intake, glucose or triglyceride) [1] | Daily food intake (db/db mice [2]; Day 1) | Daily food intake (db/db mice [2]; Day 2) | Daily food intake (db/db mice [2]; Day 3) | Daily food intake (db/db mice [2]; Day 4) | food intake (db/db mice [2]) | receptor tyrosine phosphorylation of trkC-expressing cell line (human TrkC) | receptor tyrosine phosphorylation of trkA-expressing cell line (human TrkA) | Body weight expressed in percentage of baseline value (db/db mice [3]; Day 1) | Body weight expressed in percentage of baseline value (db/db mice [3]; Day 2) | Body weight expressed in percentage of baseline value (db/db mice [3]; Day 3) | Body weight expressed in percentage of baseline value (db/db mice [3]; Day 4) | body weight growth (db/db mice [3]) | non-fasting serum glucose levels (db/db mice [4]) | absolute protein levels relative to native NT-4/5 ([5]; at any given time point) | serum half life ([5]; single subcutaneous dose of 4 mg/kg in db/db mice, estimated) |
| --- | --- | --- | --- | --- | --- | --- | --- | --- | --- | --- | --- | --- | --- | --- | --- | --- | --- |
| Pegylated mutant NT-4/5 (Q105C): NT-4/5 with residue 105 changed to cysteine, pegylated with mPEG-maleimide (10,000 Da) (conjugate) GVSETAPASRRGELAVCDAVSGWVTDRRTAVDLRGREVEVLGEVPAAGGSPLRQYFFETRCKADNAEEGGPGAGGGGCRGVDRRHWVSECKAKQSYVRALTADACGRVGWRWIRIDTACVCTLLSRTGRA | preserved TrkB receptor agonist activity | inactive in vivo |  |  |  |  |  |  |  |  |  |  |  |  |  |  |  |
| 1PEG-NT4-G1S: NT4-G1S dimer with one 20 kDa PEG molecule conjugated to only one monomer (conjugate) chain 1: SVSETAPASRRGELAVCDAVSGWVTDRRTAVDLRGREVEVLGEVPAAGGSPLRQYFFETRCKADNAEEGGPGAGGGGCRGVDRRHWVSECKAKQSYVRALTADAQGRVGWRWIRIDTACVCTLLSRTGRA chain 2: SVSETAPASRRGELAVCDAVSGWVTDRRTAVDLRGREVEVLGEVPAAGGSPLRQYFFETRCKADNAEEGGPGAGGGGCRGVDRRHWVSECKAKQSYVRALTADAQGRVGWRWIRIDTACVCTLLSRTGRA | increased receptor tyrosine phosphorylation |  | 6.8 g/day | 5.3 g/day | 6.7 g/day | 6.3 g/day | reduced | did not increase receptor tyrosine phosphorylation | did not increase receptor tyrosine phosphorylation | 100.0 % of baseline | 98.2 % of baseline | 100.0 % of baseline | 103.0 % of baseline | reduced the body weight growth | showed a tendency to reduce |  |  |
| 2PEG-NT4-G1S: NT4-G1S dimer with one 20 kDa PEG molecule conjugated to each NT-4/5 monomer (conjugate) SVSETAPASRRGELAVCDAVSGWVTDRRTAVDLRGREVEVLGEVPAAGGSPLRQYFFETRCKADNAEEGGPGAGGGGCRGVDRRHWVSECKAKQSYVRALTADAQGRVGWRWIRIDTACVCTLLSRTGRA | increased receptor tyrosine phosphorylation |  | 6.7 g/day | 5.3 g/day | 5.8 g/day | 6.2 g/day | reduced | did not increase receptor tyrosine phosphorylation | did not increase receptor tyrosine phosphorylation | 100.0 % of baseline | 97.3 % of baseline | 98.4 % of baseline | 100.1 % of baseline | reduced the body weight growth | showed a tendency to reduce | several orders of magnitude higher | 764 to 960 min |
